These results are taken from publication PMC12754688 (Gut Microbes, 2025).

Common to all, as to conditions: both partners purified
Experiment [1] deals with T1, heat-labile enterotoxin B-subunit pentamer (LTB-6HIS-3FLAG) (Escherichia coli (ETEC), human-type …, UniProt P0CK94, biotin (NHS-PEG4-Biotin) in the DELFIA experiments only). Briefly: SPR; Biacore 8K+; […] (1–300 nM); single-cycle kinetics, HBS-EP+, 30 µl min^−1, 25 °C; global 1:1 model.
Experiment [2] deals with T2, cholera toxin B-subunit pentamer (Vibrio cholerae; ctxB genotype of …, UniProt P01556).
T2 construct: source: bought: Sigma-Aldrich (C9903)
Nature of the experiment: BLI.

Experiment [3] addresses T1, heat-labile enterotoxin B-subunit …. Briefly: BLI; Octet RED96; […] (76 nM) […] (120–0.470 nM); […].
Experiment [4] has the same target. Nature of the experiment: SPR; Biacore 8K+; […] (1–300 nM); single-cycle kinetics, HBS-EP+, 30 µl min^−1, 25 °C; global 1:1 model; […].
For experiment [5], the target named is T3, cholera toxin holotoxin (AB5) (Vibrio cholerae; strain/ctxB genotype …, UniProt P01555;P01556).
T3 construct: source: Vibrio natriegens, from culture medium, purified (D-galactose column, SEC); copies: 1 + 5
T3 sequence (P01556 22-124, looked up, chain 1 of 2): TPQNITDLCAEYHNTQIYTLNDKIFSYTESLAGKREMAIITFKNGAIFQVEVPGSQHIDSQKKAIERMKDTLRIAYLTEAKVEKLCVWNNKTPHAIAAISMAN
T3 sequence (P01555 whole entry, looked up, chain 2 of 2): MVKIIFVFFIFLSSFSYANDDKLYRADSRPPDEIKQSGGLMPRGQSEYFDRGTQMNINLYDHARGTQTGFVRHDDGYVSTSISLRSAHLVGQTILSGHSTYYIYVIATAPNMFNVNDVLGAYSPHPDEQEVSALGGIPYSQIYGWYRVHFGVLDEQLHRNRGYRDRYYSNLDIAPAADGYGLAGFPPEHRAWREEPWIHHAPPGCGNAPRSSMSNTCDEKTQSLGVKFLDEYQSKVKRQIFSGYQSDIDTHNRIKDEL
Briefly: SEC.

Experiment [6] addresses T4, LTB pentamer (receptor-binding B-subunit of heat-labile enterotoxin), LTB-6HIS-3FLAG (Escherichia coli (ETEC), human-type …, UniProt P0CK94).
T4 construct: source: E. coli BL21 (DE3), periplasmic extract, purified (IMAC)
Briefly: SPR; Biacore 8K+; […] (5 µg/ml) […] (1-300 nM), single-cycle kinetics, HBS-EP+, 30 µl/min, 25 °C; global 1:1 fit; […].

Experiment [7] addresses T5, CTXB pentamer (receptor-binding B-subunit of cholera toxin) (Vibrio cholerae; ctxB genotype of …, UniProt P01556).
T5 construct: source: bought: Sigma-Aldrich (C9903)
The experiment is described as above.

Experiment [8] has as its target T4, LTB pentamer (receptor-binding …). Nature of the experiment: SPR; Biacore 8K+; […] (1 µg/ml) […] (1-300 nM), single-cycle kinetics, HBS-EP+, 30 µl/min, 25 °C; global 1:1 fit; […].
Experiment [9] addresses T5, CTXB pentamer (receptor-binding …). The description is as above.
Experiment [10] addresses T4, LTB pentamer (receptor-binding …). Briefly: BLI; Octet RED96; […] (76 nM) […] (120-0.470 nM); global 1:1 ([…]) fit; […].
For experiment [11], the target named is T5, CTXB pentamer (receptor-binding …). The experiment is described as above.

B1: monovalent VHH BL2.1 (VHH)
VHH: QVQLQQSGGGLVQAGGSLRLSCAASGFTFDDYAIGWFRQAPGKEREGISSIVGSDNYTWYTDSVKGRFTISSDNTRSTVYLQMNSLKPEDTAVYYCAADSYSDYVSLNPETFGSWGQGTQVTVSS
notes: also called LT109; non-N-glycosylated BL2.1; source: E. coli BL21 (DE3), periplasmic extract, purified (IMAC, cation exchange)
On to B1, for which the Kd was 0.26 nM in [1], 0.33 nM in [2], < 0.001 nM in [3] and 0.003 nM in experiment [4]. Besides, the binding result in experiment [5] is on record as “binds”.

B2: BL2.1 (monovalent VHH) (VHH)
VHH: QVQLQQSGGGLVQAGGSLRLSCAASGFTFDDYAIGWFRQAPGKEREGISSIVGSDNYTWYTDSVKGRFTISSDNTRSTVYLQMNSLKPEDTAVYYCAADSYSDYVSLNPETFGSWGQGTQVTVSS
notes: also called LT109; VHH BL2.1; source: E. coli BL21 (DE3), periplasmic extract, purified (IMAC, cation exchange)
B2: the koff is 0.000182 s⁻¹ in experiment [6]; 0.00179 s⁻¹ in [7]; 2.48e-05 s⁻¹ in experiment [8]; 0.000212 s⁻¹ in experiment [9]; < 1e-07 s⁻¹ in experiment [10]; 3.53e-05 s⁻¹ in [11]. Moreover, the kon in experiment [6] was 696000 M⁻¹ s⁻¹; in [7], 218000 M⁻¹ s⁻¹; in [8], 7.93e+06 M⁻¹ s⁻¹; in experiment [9] it was 557000 M⁻¹ s⁻¹; in [10] it was 69700 M⁻¹ s⁻¹; in experiment [11], 108000 M⁻¹ s⁻¹.
